Starred links: 1 amine or outer side, 2 acyl side, 3 side chain; linkers in the order of their positions; H or OH if unused. Non-standard residues stand in square brackets, D forms with d. Groups on a side chain read outwards from the residue. No end group written: not given here. *: point of attachment. C20 diacid = O=C(O)CCCCCCCCCCCCCCCCCCC(=O)*; αMePhe(2-F) = C[C@](N)(Cc1ccccc1F)C(=O)O; γGlu = O=C(O)[C@H](CCC(=O)[*:2])N[*:1]; 4Pal = N[C@@H](Cc1ccncc1)C(=O)O; αMeL = CC(C)C[C@](C)(N)C(=O)O; Orn = NCCC[C@H](N)C(=O)O; AEEA = NCCOCCOCC(=O)O; Aib = CC(C)(N)C(=O)O
T1: human glucose-dependent insulinotropic polypeptide (GIP) receptor (human), P48546
T1 chain: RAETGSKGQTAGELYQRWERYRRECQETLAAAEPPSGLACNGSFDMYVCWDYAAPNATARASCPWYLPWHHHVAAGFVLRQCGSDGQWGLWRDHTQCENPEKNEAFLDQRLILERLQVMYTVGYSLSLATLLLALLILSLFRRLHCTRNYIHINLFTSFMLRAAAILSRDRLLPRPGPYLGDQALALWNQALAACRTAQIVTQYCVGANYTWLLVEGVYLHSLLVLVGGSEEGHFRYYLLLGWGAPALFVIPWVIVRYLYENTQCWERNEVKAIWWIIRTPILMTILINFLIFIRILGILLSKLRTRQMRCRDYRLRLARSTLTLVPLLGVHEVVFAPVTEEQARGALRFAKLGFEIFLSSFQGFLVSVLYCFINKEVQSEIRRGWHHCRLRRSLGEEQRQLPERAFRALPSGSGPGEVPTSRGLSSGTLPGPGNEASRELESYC

B1: Example 112 (peptide)
peptide: Y[Aib]EGT[αMePhe(2-F)]ISDYSIALDKIHQ[Aib]DFVE[4Pal]K([AEEA-AEEA-γGlu-C20 diacid])LEGGPSSGAPPPS-NH2
modifications: N-terminus assumed
SMILES: CC[C@H](C)[C@H](NC(=O)[C@H](CO)NC(=O)[C@H](Cc1ccc(O)cc1)NC(=O)[C@H](CC(=O)O)NC(=O)[C@H](CO)NC(=O)[C@@H](NC(=O)[C@](C)(Cc1ccccc1F)NC(=O)[C@@H](NC(=O)CNC(=O)[C@H](CCC(=O)O)NC(=O)C(C)(C)NC(=O)[C@@H](N)Cc1ccc(O)cc1)[C@@H](C)O)[C@@H](C)CC)C(=O)N[C@@H](C)C(=O)N[C@@H](CC(C)C)C(=O)N[C@@H](CC(=O)O)C(=O)N[C@@H](CCCCN)C(=O)N[C@H](C(=O)N[C@@H](Cc1c[nH]cn1)C(=O)N[C@@H](CCC(N)=O)C(=O)NC(C)(C)C(=O)N[C@@H](CC(=O)O)C(=O)N[C@@H](Cc1ccccc1)C(=O)N[C@H](C(=O)N[C@@H](CCC(=O)O)C(=O)N[C@@H](Cc1ccncc1)C(=O)N[C@@H](CCCCNC(=O)COCCOCCNC(=O)COCCOCCNC(=O)CC[C@H](NC(=O)CCCCCCCCCCCCCCCCCCC(=O)O)C(=O)O)C(=O)N[C@@H](CC(C)C)C(=O)N[C@@H](CCC(=O)O)C(=O)NCC(=O)NCC(=O)N1CCC[C@H]1C(=O)N[C@@H](CO)C(=O)N[C@@H](CO)C(=O)NCC(=O)N[C@@H](C)C(=O)N1CCC[C@H]1C(=O)N1CCC[C@H]1C(=O)N1CCC[C@H]1C(=O)N[C@@H](CO)C(N)=O)C(C)C)[C@@H](C)CC
B2: Example 113 (peptide)
peptide: Y[Aib]EGT[αMePhe(2-F)]ISDYSIALDKIHQ[Aib]DFVE[4Pal]K([AEEA-AEEA-γGlu-C20 diacid])LEAGPSSGAPPPS-NH2
modifications: N-terminus assumed
SMILES: CC[C@H](C)[C@H](NC(=O)[C@H](CO)NC(=O)[C@H](Cc1ccc(O)cc1)NC(=O)[C@H](CC(=O)O)NC(=O)[C@H](CO)NC(=O)[C@@H](NC(=O)[C@](C)(Cc1ccccc1F)NC(=O)[C@@H](NC(=O)CNC(=O)[C@H](CCC(=O)O)NC(=O)C(C)(C)NC(=O)[C@@H](N)Cc1ccc(O)cc1)[C@@H](C)O)[C@@H](C)CC)C(=O)N[C@@H](C)C(=O)N[C@@H](CC(C)C)C(=O)N[C@@H](CC(=O)O)C(=O)N[C@@H](CCCCN)C(=O)N[C@H](C(=O)N[C@@H](Cc1c[nH]cn1)C(=O)N[C@@H](CCC(N)=O)C(=O)NC(C)(C)C(=O)N[C@@H](CC(=O)O)C(=O)N[C@@H](Cc1ccccc1)C(=O)N[C@H](C(=O)N[C@@H](CCC(=O)O)C(=O)N[C@@H](Cc1ccncc1)C(=O)N[C@@H](CCCCNC(=O)COCCOCCNC(=O)COCCOCCNC(=O)CC[C@H](NC(=O)CCCCCCCCCCCCCCCCCCC(=O)O)C(=O)O)C(=O)N[C@@H](CC(C)C)C(=O)N[C@@H](CCC(=O)O)C(=O)N[C@@H](C)C(=O)NCC(=O)N1CCC[C@H]1C(=O)N[C@@H](CO)C(=O)N[C@@H](CO)C(=O)NCC(=O)N[C@@H](C)C(=O)N1CCC[C@H]1C(=O)N1CCC[C@H]1C(=O)N1CCC[C@H]1C(=O)N[C@@H](CO)C(N)=O)C(C)C)[C@@H](C)CC
B3: Example 115 (peptide)
peptide: Y[Aib]EGTFISDYSI[αMeL]LDKIRQ[Aib]DFVEYK([AEEA-AEEA-γGlu-C20 diacid])LEGGPSSGAPPPS-NH2
modifications: N-terminus assumed
SMILES: CC[C@H](C)[C@H](NC(=O)[C@H](CCCCN)NC(=O)[C@H](CC(=O)O)NC(=O)[C@H](CC(C)C)NC(=O)[C@](C)(CC(C)C)NC(=O)[C@@H](NC(=O)[C@H](CO)NC(=O)[C@H](Cc1ccc(O)cc1)NC(=O)[C@H](CC(=O)O)NC(=O)[C@H](CO)NC(=O)[C@@H](NC(=O)[C@H](Cc1ccccc1)NC(=O)[C@@H](NC(=O)CNC(=O)[C@H](CCC(=O)O)NC(=O)C(C)(C)NC(=O)[C@@H](N)Cc1ccc(O)cc1)[C@@H](C)O)[C@@H](C)CC)[C@@H](C)CC)C(=O)N[C@@H](CCCNC(=N)N)C(=O)N[C@@H](CCC(N)=O)C(=O)NC(C)(C)C(=O)N[C@@H](CC(=O)O)C(=O)N[C@@H](Cc1ccccc1)C(=O)N[C@H](C(=O)N[C@@H](CCC(=O)O)C(=O)N[C@@H](Cc1ccc(O)cc1)C(=O)N[C@@H](CCCCNC(=O)COCCOCCNC(=O)COCCOCCNC(=O)CC[C@H](NC(=O)CCCCCCCCCCCCCCCCCCC(=O)O)C(=O)O)C(=O)N[C@@H](CC(C)C)C(=O)N[C@@H](CCC(=O)O)C(=O)NCC(=O)NCC(=O)N1CCC[C@H]1C(=O)N[C@@H](CO)C(=O)N[C@@H](CO)C(=O)NCC(=O)N[C@@H](C)C(=O)N1CCC[C@H]1C(=O)N1CCC[C@H]1C(=O)N1CCC[C@H]1C(=O)N[C@@H](CO)C(N)=O)C(C)C
B4: Example 116 (peptide)
peptide: Y[Aib]EGTFISDYSI[αMeL]LD[Orn]IRQ[Aib]DFVEYK([AEEA-AEEA-γGlu-C20 diacid])LEGGPSSGAPPPS-NH2
modifications: N-terminus assumed
SMILES: CC[C@H](C)[C@H](NC(=O)[C@H](CCCN)NC(=O)[C@H](CC(=O)O)NC(=O)[C@H](CC(C)C)NC(=O)[C@](C)(CC(C)C)NC(=O)[C@@H](NC(=O)[C@H](CO)NC(=O)[C@H](Cc1ccc(O)cc1)NC(=O)[C@H](CC(=O)O)NC(=O)[C@H](CO)NC(=O)[C@@H](NC(=O)[C@H](Cc1ccccc1)NC(=O)[C@@H](NC(=O)CNC(=O)[C@H](CCC(=O)O)NC(=O)C(C)(C)NC(=O)[C@@H](N)Cc1ccc(O)cc1)[C@@H](C)O)[C@@H](C)CC)[C@@H](C)CC)C(=O)N[C@@H](CCCNC(=N)N)C(=O)N[C@@H](CCC(N)=O)C(=O)NC(C)(C)C(=O)N[C@@H](CC(=O)O)C(=O)N[C@@H](Cc1ccccc1)C(=O)N[C@H](C(=O)N[C@@H](CCC(=O)O)C(=O)N[C@@H](Cc1ccc(O)cc1)C(=O)N[C@@H](CCCCNC(=O)COCCOCCNC(=O)COCCOCCNC(=O)CC[C@H](NC(=O)CCCCCCCCCCCCCCCCCCC(=O)O)C(=O)O)C(=O)N[C@@H](CC(C)C)C(=O)N[C@@H](CCC(=O)O)C(=O)NCC(=O)NCC(=O)N1CCC[C@H]1C(=O)N[C@@H](CO)C(=O)N[C@@H](CO)C(=O)NCC(=O)N[C@@H](C)C(=O)N1CCC[C@H]1C(=O)N1CCC[C@H]1C(=O)N1CCC[C@H]1C(=O)N[C@@H](CO)C(N)=O)C(C)C
B5: Example 120 (peptide)
peptide: Y[Aib]EGT[αMePhe(2-F)]ISDYSILLDKIHQ[Aib]DFVE[4Pal]K([AEEA-AEEA-γGlu-C20 diacid])LEAGPSSGAPPPS-NH2
modifications: N-terminus assumed
SMILES: CC[C@H](C)[C@H](NC(=O)[C@H](CO)NC(=O)[C@H](Cc1ccc(O)cc1)NC(=O)[C@H](CC(=O)O)NC(=O)[C@H](CO)NC(=O)[C@@H](NC(=O)[C@](C)(Cc1ccccc1F)NC(=O)[C@@H](NC(=O)CNC(=O)[C@H](CCC(=O)O)NC(=O)C(C)(C)NC(=O)[C@@H](N)Cc1ccc(O)cc1)[C@@H](C)O)[C@@H](C)CC)C(=O)N[C@@H](CC(C)C)C(=O)N[C@@H](CC(C)C)C(=O)N[C@@H](CC(=O)O)C(=O)N[C@@H](CCCCN)C(=O)N[C@H](C(=O)N[C@@H](Cc1c[nH]cn1)C(=O)N[C@@H](CCC(N)=O)C(=O)NC(C)(C)C(=O)N[C@@H](CC(=O)O)C(=O)N[C@@H](Cc1ccccc1)C(=O)N[C@H](C(=O)N[C@@H](CCC(=O)O)C(=O)N[C@@H](Cc1ccncc1)C(=O)N[C@@H](CCCCNC(=O)COCCOCCNC(=O)COCCOCCNC(=O)CC[C@H](NC(=O)CCCCCCCCCCCCCCCCCCC(=O)O)C(=O)O)C(=O)N[C@@H](CC(C)C)C(=O)N[C@@H](CCC(=O)O)C(=O)N[C@@H](C)C(=O)NCC(=O)N1CCC[C@H]1C(=O)N[C@@H](CO)C(=O)N[C@@H](CO)C(=O)NCC(=O)N[C@@H](C)C(=O)N1CCC[C@H]1C(=O)N1CCC[C@H]1C(=O)N1CCC[C@H]1C(=O)N[C@@H](CO)C(N)=O)C(C)C)[C@@H](C)CC

Key:
[1] = molecular target: human glucagon receptor (human), P47871; experiment: SPA, displacement of [125I]-Gcg from hGcgR membranes, 0.1% bacitracin
Sequence of human glucagon receptor (human), P47871 (P47871 26-477): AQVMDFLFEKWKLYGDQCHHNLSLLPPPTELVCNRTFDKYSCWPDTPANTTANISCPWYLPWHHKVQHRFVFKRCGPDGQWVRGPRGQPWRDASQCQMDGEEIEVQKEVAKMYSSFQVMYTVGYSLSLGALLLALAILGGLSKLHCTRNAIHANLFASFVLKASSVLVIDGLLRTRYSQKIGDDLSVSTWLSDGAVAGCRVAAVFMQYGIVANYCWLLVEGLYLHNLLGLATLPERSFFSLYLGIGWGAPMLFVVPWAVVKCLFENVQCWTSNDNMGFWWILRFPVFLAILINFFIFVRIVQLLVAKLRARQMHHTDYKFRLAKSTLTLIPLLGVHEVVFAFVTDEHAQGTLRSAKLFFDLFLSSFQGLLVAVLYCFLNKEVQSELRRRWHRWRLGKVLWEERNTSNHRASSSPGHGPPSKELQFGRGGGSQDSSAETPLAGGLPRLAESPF

[2] = molecular target: T1, human glucose-dependent insulinotropic …; experiment: SPA, displacement of [125I]-GIP from hGIPR membranes, 0.1% bacitracin

Row | Binder | Ki [1] [nM] | Ki [2] [nM]
1 | B1 | 257 | 0.0742
2 | B2 | 821 | 0.108
3 | B3 | 373 | 0.0997
4 | B4 | 178 | 0.166
5 | B5 | 575 | 0.171
